# Assay: soluble on expression in E. coli; label from the status in PepcDB or PDB records
row,Sequence,soluble on expression in E. coli
1,MLSFPRPHSLVEGVVSAIRREIVSGRLPAESKMPTEHELADQFSVSRSVVREAISQLKADGVLVIRRGSGSFVSQTPGGTVFRLPGNEDHSAGLAKLFELRSWIEIQVASVAAQRHTDADLKRLSDAMLLMESNAGNFEISSKADCEFHCAIVAACKNEYLTAFHDFLGSQLIQARFMAWENSSKLEIGPSGAIREHREIFDAIAKRNPSEAAHCARMHLKAAALRLNIDLAD,not soluble
2,KTTVIPESLKILGWVEFTRLEPWGIKTPARIDTGANTSSMSARDINVFKRNGKTWVRFTFDFKKGTAERSIEIERPLVRMVKIKQHDGPSQERPVISMEICLADEIREAEFDLIDRRALNYPVLLGRKALAGYVVVDPARAYLTKAV,not soluble
3,MADLPSISLITATYNAAQHLPGLIESVRQQSDRAFEWIVIDGASEDGTLDLIRGAQDVITDYVSEPDFGIFHALNKGIQRATGDYYLVVGADDRLDPLAIANYKQAAASSQADLISAYIYSEKKAIIKPTGGAIWHHGVQAFITTQSVGTLIKRNLHEHYGYYSHYYPTAADALFILKVQQGGGKITTAEFIAGQYNTKGFSYRYKANLLCELFLIQKEFFPKSIQLLLLIYRLIKNYRYLLEHHHHHH,not soluble
4,MGSDKIHHHHHHMSTPQFGRKVSLIIGQDSGDALDLSELRFRFDVRRGDLQTPNSARVRVYNVSPDTARRAQREFSRLVLQAGYPGNFGIIFDGTIKQVRRGRENQTDTYLDITAADGDSAYNFAVVNTTLAAGSTPSDHVAAACTAMNPYGVTQGYLPSLPSNPLPRGKVMFGMAREFMRWTARTCQTVWSIQDGKAIMVPETSYMPGEIPVITAETGMVGLPEQTQNGIAIKMLLNPSVKIGRLIQIDNASVQQYEYSLNVGQQAQNERIEQQAKLQDDGFYYVMLAEHYGDTRGNDFYTDVICLAADVTVLPDSFRDKAAVPPDNVIKRFG,not soluble
5,MATYYSNDFRAGLKIMLDGEPYAVEASEFVKPGKGQAFARVKLRRLLTGTRVEKTFKSTDSAEGADVVDMNLTYLYNDGEFWHFMNNETFEQLSADAKAIGDNAKWLLDQAECIVTLWNGQPISVTPPNFVELEIVDTDPGLKGDTAGTGGKPATLSTGAVVKVPLFVQIGEVIKVDTRSGEYVSRVK,soluble
6,MAHHHHHHMTSQTTTAVFSSDLQTFIVTKYDPLLSIVKELNDKLQNSEKDKYHLEKRIIKLEKQMVLLLEKLEVSDILFDNEEKEKKEEPRKNQKIESEENLLAPWLFSCQLGTPLSSLQVLLEFNVNNTIELNVKLWKREEDMWINVLEDISSNYNNYLPDSLSLLDLRKAARKCLLNICMNEILIVLRNVPGKSQALYNTTTMTLVAILASAIYEAWKRIELTDPVSLGRIVLVLDGMNCINKKREDVGSRLRAGNKKLKIEPLN,not soluble
7,EIGEPDVTDATLGSVYSEIISPVKDCILTVAKAVSFNPGGKDNTDAVEVLTELNTKVERAALNQPILTTKTER,soluble
8,AMNTDLKLPAGKTMTIEDVKQLLERYQMALKKTGEQLGWAYEQAAFPYTVRIHESVLYLQGDGRLYKGMAISVRTAGEETFIDIALPPGATHGDKGKANEFSKWLAKTLGGELHLFSGRTMVFGSA,soluble
9,MPSAAPSSSVLLVQISDSHLFAEADGALLGMSTRDSLEKVVDLVLAEQPQVDLVVASGDISQDGSVESYEAFRRISTQIAAPARWFAGNHDELPQMEHVAQAEGLLEPIINIGRWRVTLLDSAVPGSVPGFLAAGQLQLLEQSLSEAPDRHHLVCLHHHPVAIGCEWMTPIGLRNADALFAVLDRFPQVRAVLWGHVHQEFDQMRNGVRLLASPSTCIQFAPGSADFKVDTTAPGYRWLRLHDDGRLETAVSRVVGMQFEVDYGGTGY,not soluble
10,MGSDKIHHHHHHMDLEIATVKAILTEHDLLKEIKSTKTVANTGISYDSRTVKPGYMFFCKGNFKPEYLSVARQNGATTYVSENEYPEGTGMTAIIVTNVTRAMAVLSATYYNFPQNDLFIIGITGTKGKTSSAYFAHSILNQKYPNQVALFSTIDRIVGPKPEDQFKSDLTTPESMNLFHDMRVAVDNGMKYLVMEVSSQAYLRDRVYGLKFDCGIFLNITPDHIGRNEHKDFEDYLHCKLQLMVNSKRCIIDADTDRFDDVFGAAKATTDPEQIYLFSADVENGGVDFLIQDEEDDLTSNRFTLVESSSKAEAFHVAGDYDLNVAGDYNQSNATAAIIAAALADVTYQDAVLPLKSIVIPGRMEHLNVPGHGVVFVDYAHNYASLHALLKFLKHQYHDGKVIVVVGSPGDKGISRRAGFGQALSEQADIAYLTTDDPAFEDPEQIIQQIMDNIKPGTVEVRQVLDRHDAIEQAIMNSSEKDVVVLAGKGEDPYQKVGGVDTPWPTDMGVAEEVKRGLS,not soluble
11,MMEEQLIPIQWKDDALVLLDQTLLPNEIVYESFKTAESVWDAIQVMKVRGAPAIGVSAAYGVYLGIKEFAESTEEGFMDEVRKVCTYLATSRPTAVNLFWALERMESVATDNIHLSISQLKNRLLEEAKEIHREDEEINRQIGEHALTLFHDGMGVLTHCNAGALATTKYGTATAPMYLAKEKGWDLKIYSDETRPRLQGSTLTALELQRAGIDVTVITDNMAAMVMSQGKIDAVIVGCDRVAANGDVANKIGTLGVSILAKYYNIPFYVAAPTPTIDLKTSTGKEIPIEERDASEVINRFGKYSAPKESKVYNPAFDVTPHENVTAIITEKGIVKAPFTENLKKLFQ,not soluble
12,NEAPIDMHGGKSAKIERQSVENSAQKENSKSAILERLKRLREYSKDHLKAFQRLQVQDFDGRIKPLDTISIEYIHKILKKDDFQGLNAMQVLLGIMFFPNDWRSIKMIYTSTKALRKLIGTPLDESRIAFRDAFDSRGYKLKNLVEEVNQKSPNARNELDKDVLKVDERINLVYTLFSAQFLRIFPSDKTTAWLSPIEAISSPNKEISSVATEFLKNIFSGFDDALKTNQWDKVEKTLKDLSIYQKEHAKNLYLSSSKVDSEIFLNHTNFFNRLT,not soluble
13,MSLNIPLSGIIPPLVTPLLDDDVLDVEGLQRLIEHLIAGGVHALFVLGTTGESQSLSYKLRMEMIKNTCRIAKGRLPVLVCISDTSIVESVNLACLAADHGADAVVSAPPYYFATGQPELIEFYEHLLPQLPLPLFLYNMPTHTKVNFAPATIQRIAENPGVIGFKDSSANTVYFQSVMYAMKDNPDFSMLVGPEEIMAESVLLGAHGGVNGGANMFPELYVSLYNAAKNADMEEVRRLQEKVMQISATIYTVGQHGSSYLKGLKCALSLLGICSDYVAAPFHKFEQRERGKIWKALQNLGVDEGHHHHHH,soluble
14,GDYERILYELEGMYQFGKRSHLDISAFSIASGVGYQLPLPMNPQFWLRYDFASGDKNHRDGRSNTFNQLFPFGHYYFGYIDQVGRQNIHDFNAQFTLHPQPWVTFLGQYHRFYLANKRDYLYNAAGAGTIRDITGQSGSHVGDEIDFTINFHLSRHQDVLLGYSKLFTGEFLKNTRPGVSPDLFYAQYNFRF,not soluble
15,MAHHHHHHMYSSVRPYKILQKVKRNDNNSNSNSNNNSNSNSNSSSIRNPPNEAKKEPTEREDSGKKKPVEKKKKYEDLKYYECNRKSLSTKSQEAEGRDKITKYNNKTNQHADNNHVKKLQSEKVLKKKEDMLVTLLKKEQSSVHNKKIIIRHLPPTLSEDNFFESFPSNLKDELDYYYYVNGCVPKNQGGDITHSRMYLSFKDDLKTKEFIKTQHGKFFYDSNGGKFKAMVSFAPYQTIIHKNKLDEMNNTLESDAYFLKCCEEMNNPQEPVKKDDDNADLSNVIKEDGVILPPLVVALRKKLKNKKLK,not soluble
16,MDLSSKPQQQLLNSLPIAGELTVTGEMGVCYKECLKNHAANLGGHALDGCGEFMPSPTATSTDPSSLRCAACGCHRNFHRRDPSENLNFLTAPPISSPSGTESPPSRHVSSPVPCSYYTSAPPHHVILSLSSGFPGPSDQDPTVVRSENSSRGAMRKRTRTKFTPEQKIKMRAFAEKAGWKINGCDEKSVREFCNEVGIERGVLKVWMHNNKYSLLNGKIREIEHGLCLNTHSNDGDGSSSS,soluble
17,MSLLITAGVIALGFNFKRFQNEYDWLTLKPEQKLNVPLVNQLPDLPNGCEVTSLAMLLKYYDINVSKLELSSNIKHVSSFVGNNYRGNPHVGFVGYMSIKNAGWCVYNEPLYNVARKYTKRIRNYTGNDFVQVLKLVSKRHPVVIITTLKFDRVNDMQTWSTKQGKVHVTPSSHACVITGYNKKKGIVYVNDPYGVKNKKVSLKKIEASYNQQGKQALYIEEGHHHHHH,soluble
18,MASIFESPELIGAFIGEVEEQLQLLENNVVELEKNGGTAEVVQELFRAAHTLKGSSATMGFEKMKTLTHEMENVLDKIRNGLLEISRPVIDVLFECLDCLNMLKEDFVSDSNNVKTEITPVITKLKEISSENETNNQNSDSDKAENLETGRREQPIFVLDEKQQEQINQALGIGQNVLVCEVEILEDSQMKSVRACLIMNFLNEWGTVINMVPNVMEIPIDSDVGKVAFLVVTQMSADELRQKVQNDLMDIKEVRVFPYFIQNSISQTKDGETGVRDKDNSSGVKTATEEKRVVHTVRIDVDRLERMMDLVGELVIEQIRIAQVANNLYNQYPSDETVDDLIGISNRVSILINELQEGIMKTRMIPVQQLFSRFPRMVRDLSVSLNKEVNLVLEGGETEIDRTIMEEMSDPLIHLIRNAIDHGIENPEIRKKLGKPEQGTLRVTALPEDSNVIITVEDDGAGIDPQEIKQSAIKKRIVTEQEANNMTEQQLINLIFQTGFSTSQKVSDVSGRGVGMDIVKTHIEKLNGIIDVETCAGSGTKFIIKLPIKLPLTLAILKGLLVKISNETYALPMNNVVEIVRKPKNEIESINGQAVAVIRDRAIPLIWLHDYFGIPRGNERKNTLIVLLGIAEKRFGLVVDELIGNQEIVVTNLGSYIGKVEGISGATILGDRSVACILDVVGIAKIVNSRKVSRIDVEYSKQ,not soluble
19,MSLNKKMIFFDIDGTIVDEKTHVIPEGTIAAIKKARSNGHLVFINTGRTFFNVPDSIRQIGFDGYVCGCGTYIHINGQTLLEKSISHKRCVEIVEKLRECKLDALLEGQKDFFFDQREPVSEKTLELKSKFGKRGYDVSKSWDDSDIVFDKFVIWTRKESNLEAFKSHISNDFDYIDREDEEGEFGEIVLKGYSKATGIKFLQDYFNIPIEDCYALGDSLNDLPMLQYVPNSIAMGNSSKGLFDLVAFVTKDIMEDGIEYALKHYNIIEGHHHHHH,soluble
20,MVKLRIGYPEDPDYQERLEEFEARIARGEKIEPGDWMPAEYRRQLIRMISQHAHSEWVGMLPEGAWITRAPSLRRKLILLAKVQDEAGHGQYLYHAAETLGITREEMVEALLSGKAKYSNIFNYPTLTWADVAIIGWLVDGMAIKNQTMLAQCSYGPYSRAMVRICAEETFHHKQGKEAVLLYAKGSPKQRRMVQDALNRWWWPTLMMAGPHDTDSPHTPLLLRWGIKTKTNDQIRQEFLNEHVPELLDAGLSIPDPDLRYDEKTGNWIHGPIPWDEFWKVIGGEGPMNRHRLQGRRRAHQEGRWVREAMEAYAKRRLAQAAD,soluble

# Source: the DeepSol protein solubility set
